B1: TrwI/VirB6 (natural protein)
chain: MAFELFTPLFNKIDQTTATYVTDISSRAIAAITPVVSVGLTLGFITYGWLIIRGAVEMPVAEFLNRCLRIGIIVSIALAGGLYQGEIANAITTVPDELASALLGNPTEGASAAALVDQSAQQGFDRASEAFEEAGFFSSDGLLYGLFGIIIPAGYGPAGAIGGAFLLLAKIALALLAGLGPLFILALIWQPTHRFFDQWAQQVLNYGLLIVLFAAVFGLLMQIFGSYMADLRFDGAQNVAYAIGGSVILSIVSIVLLMQLPSIASGLAGGIGLGYMWELRSMRSGAGAAMRGGRAMARGARAAPGAARGAAVGAANMAKTVATGGAGVARAAAGYFRGRKAG
notes: TrwI, the VirB6 homologue of the type IV secretion system encoded by the conjugative plasmid R388; TM region (α1 and α2) is residues 30-82; also called TrwI/VirB6TM; VirB6_(α1α2TM); source: R388 T4SS complexes expressed and purified from membranes as described previously (Mace et al, 2022)
B2: TrwE/VirB10 (natural protein)
chain: MFGRKKGDVIDAGAELERAEQERIEGEYGASELASERRPHTPGARTLLMVLLCVIAVVLVTLSYKAYKVRGVVEDDDAQPQQVVRQVIPGYTPRPIRPEPENVPEPPQPTTSVPAIQPAPVTQPVRPQPTGPREKTPYELARERMLRSGLTAGSGGGEDLPRPQGGDVPAGGLMGGGGGGGELAEKLQPMRLSGSSAGRLGNRDMLITQGTQLDCVLETRLVTTQPGMTTCHLTRDVYSTSGRVVLLDRGSKVVGFYQGGLRQGQARIFVQWSRIETPSGVVINLDSPGTGPLGEAGLGGWIDRHFWERFGGAIMISLIGDLGDWASRQGSRQGNNSIQFSNTANGVESAAAEALRNSINIPPTLYKNQGERVNILVARDLDFSDVYSLESIPTK
notes: TrwE, the VirB10 homologue of the type IV secretion system encoded by the conjugative plasmid R388; residues 21-69, 83-101, 135-153 and 177-395 are described in the structures; the first 20 residues are invisible; also called TrwE/VirB10NTD; VirB10NT; source: R388 T4SS complexes expressed and purified from membranes as described previously (Mace et al, 2022)
B3: TrwF/VirB9 (natural protein)
chain: LDVPSSSRYDHRIRYVTYNPADVVQVDTVLGVATHIMLEEGEQYLTHAFGIPKPMPLPGRAGIFLSSRTAELANTNLIVVTDRRSYKFRLQMRNDRNGAMYELAFRYPDTQARQTREANARAAVEAAFEQRVGAYYNLKYMMSGDKDIAPVNAWDDGRFTYFKFSANADLPSIYFVDAEGNESLVPRTTVGSSNNIIAVHKVNPKWMIRLGNRALAIFNEAYDPNGVPNDTGTASPAVRRVNKGGN
notes: TrwF, the VirB9 homologue of the type IV secretion system encoded by the conjugative plasmid R388; NTD in the I-layer, CTD in the O-layer, linker helix residues 128 to 150; also called TrwF/VirB9NTD; VirB9CTD; source: R388 T4SS complexes expressed and purified from membranes as described previously (Mace et al, 2022)
B4: TrwK/VirB4 (enzyme)
chain: MGAIESRKLLASETPVGQFIPYSHHVTDTIISTKNAEYLSVWKIDGRSHQSASEADVFQWIRELNNTLRGISSANLSLWTHIVRRRVYEYPDAEFDNVFCRQLDEKYRESFTGYNLMVNDLYLTVVYRPVSDKVLSFFAKRERETPDQKKHRQESCIKALEDINRTLGQSFKRYGAELLSVYEKGGHAFSAPLEFLARLVNGEHIPMPICRDRFSDYMAVNRPMFSKWGEVGELRSLTGLRRFGMLEIREYDDATEPGQLNVLLESDYEFVLTHSFSVLSRPAAKEYLQRHQKNLIDARDVATDQIEEIDEALNQLISGHFVMGEHHCTLTVYGETVQQVRDNLAHASAAMLDVAVLPKPVDLALEAGYWAQLPANWQWRPRPAPITSLNFLSFSPFHNFMSGKPTGNPWGPAVTILKTVSGTPLYFNFHASKEEEDATDKRLLGNTMLIGQSSSGKTVLLGFLLAQAQKFKPTIVAFDKDRGMEISIRAMGGRYLPLKTGEPSGFNPFQLPPTHANLIFLKQFVKKLAAAGGEVTHRDEEEIDQAITAMMSDSIDKSLRRLSLLLQFLPNPRSDDMDARPTVHARLVKWCEGGDYGWLFDNPTDALDLSTHQIYGFDITEFLDNPEARTPVMMYLLYRTESMIDGRRFMYVFDEFWKPLQDEYFEDLAKNKQKTIRKQNGIFVFATQEPSDALESNIAKTLIQQCATYIFLANPKADYEDYTQGFKLTDSEFELVRGLGEFSRRFLIKQGDQSALAEMNLGKFRTIVDGETVERDFDDELLVLSGTPDNAEIAESIIAEVGDDPAVWLPIFLDRVKAERSDV
notes: TrwK, the VirB4 ATPase of the type IV secretion system encoded by the conjugative plasmid R388; also called TrwK/VirB4_(central); TrwK/VirB4_(outside); source: R388 T4SS complexes expressed and purified from membranes as described previously (Mace et al, 2022)
B5: TrwG/VirB8 (natural protein)
chain: MSKKQPKPVKAEQLKSYYEESRGLERDLIGEFVKSRKTAWRVATASGLFGLLGMVCGIVGFSQPAPAPLVLRVDNATGAVDVVTTLREHESSYGEVVDTYWLNQYVLNREAYDYNTIQMNYDTTALLSAPAVQQDYYKLFDGSNARDRVLGNKARITVRVRSIQPNGRGQATVRFTTQQHNSNGTVERPQHQIATIGYTYIGAPMRSSDRLLNPLGFQVTSYRADPEILNN
notes: TrwG, the VirB8 homologue of the type IV secretion system encoded by the conjugative plasmid R388; also called TrwG/VirB8_(peri); TrwG/VirB8_(tail); source: R388 T4SS complexes expressed and purified from membranes as described previously (Mace et al, 2022)
B6: TrwH/VirB7 (natural protein, UniProt O50334 17-47, looked up)
chain: CASAPKPKQPSDFNREPVNKTVPVEIQRGAL
notes: TrwH, the VirB7 homologue of the type IV secretion system encoded by the conjugative plasmid R388; source: R388 T4SS complexes expressed and purified from membranes as described previously (Mace et al, 2022)
B7: TrwJ/VirB5 (natural protein, UniProt O50331 23-226, looked up)
chain: QGIPVFDGTRALDFVQQFARMKEQLDTAKDQLAEAQRMYEAVTGGRGLGDLMRNAQLREYLPDDLRTVYDSANGGGYSGISGSINDILRDERLNGSVADMRRSIEERSRTARTTDKAVGCGPTKGHSNASRRLKDEISRTQDQKAIEELQARIAGEQAAIQNETTKLQMIAQLRQAEQALISEQRRERNMPILSSGNQGMPTIQ
notes: TrwJ, the VirB5 homologue of the type IV secretion system encoded by the conjugative plasmid R388; residues Gln23-Ala33 newly built; source: R388 T4SS complexes expressed and purified from membranes as described previously (Mace et al, 2022)
B8: TrwM/VirB3 (natural protein)
chain: MKPPQQQHEAFPLFKGATRLPTILGEPMIPLMAMVMGVAVIALTVSIWWWALVPPLWFIMAQITKNDDKAFRIWWLWIDTKFRNRNKGFWGASSYSPANYRKRR
notes: TrwM, the VirB3 homologue of the type IV secretion system encoded by the conjugative plasmid R388; source: R388 T4SS complexes expressed and purified from membranes as described previously (Mace et al, 2022)

Series [1] has as its target B2. The series can be described thus: cryo-EM structure; R388 T4SS complex purified from membranes; extended IMC protomer map without symmetry, 3.83 Å, with the Stalk-Arches-IMC map at 4.33 Å. Conditions: both partners purified.
The target of the series “TrwK/VirB4” is B4. Described as above. Conditions: both partners purified.
Series [2] deals with the molecule itself. The series can be described thus: cryo-EM structure; R388 T4SS complex purified from membranes; OMCC maps: O-layer with C14 symmetry (2.46 Å), I-layer with C16 symmetry (2.69 Å), OMCC conformations A, B and C without symmetry.
For series [3], the target named is B2. Described as above. Conditions: both partners purified.
Series [4] deals with the molecule itself. The series can be described thus: cryo-EM structure; R388 T4SS complex purified from membranes; extended IMC protomer map without symmetry, 3.83 Å, with the Stalk-Arches-IMC map at 4.33 Å.
In series [5] the target is B2. The series can be described thus: cryo-EM structure; R388 T4SS complex purified from membranes; Arches map without symmetry, 6.22 Å; secondary structures only, no side chains. Conditions: both partners purified.
Series [6] concerns the molecule itself. The description is as above.
In the series “TrwF/VirB9” the target is B3. Kind of series: cryo-EM structure; R388 T4SS complex purified from membranes; OMCC maps: O-layer with C14 symmetry (2.46 Å), I-layer with C16 symmetry (2.69 Å), OMCC conformations A, B and C without symmetry. The conditions noted are these: both partners purified.
The series “TrwI/VirB6” deals with B1. The series can be described thus: cryo-EM structure; R388 T4SS complex purified from membranes; Stalk map with C5 symmetry applied, 2.97 Å. Conditions: both partners purified.

As to B1, the binding result in the series with TrwE/VirB10 [1] is recorded as “binds”. In the case of B2, the binding result (with TrwK/VirB4; in [2]) was “binds” each time.

With B3, the binding result with TrwE/VirB10 [3] is recorded as “binds”.

Regarding B4, the binding result in [4] is “binds”. As a reminder, the stoichiometry N is a count of units in the complex or per binding partner. For the molecule B5, the binding result with TrwE/VirB10 [5] and with TrwK/VirB4 was “binds” in each case. Moreover, the “stoichiometry N” value in series [6] stood at 24 subunits. Turning to B6, the binding result with TrwE/VirB10 [3] and with TrwF/VirB9 was “binds” each time.

B7: the binding result with TrwI/VirB6 is given as “binds”.

Consider B8, for which the binding result with TrwK/VirB4 and with TrwE/VirB10 [1] was “binds” each time.

For the origin of these results see PMC11294453, “Cryo-EM structure of a conjugative type IV secretion system suggests a molecular switch regulating pilus biogenesis” (The EMBO Journal, 2024).
